Data set [1] deals with the molecule itself. The data set is described as follows: SEC; analytical, Superose 6 Increase 3.2/300, 20 mM Hepes, 140 mM NaCl, 100 mM imidazole, 15% glycerol, 0.1% GDN, pH 7.5, 4 °C; absorbance at 280 and 515 nm. Background: SEC sorts molecules by how far they enter the pores of the column.
The target in data set [2] is T1, human coreTAPL R288A, C-terminal mVenus-His10 fusion (human) (UniProt Q9NP78).
T1 sequence: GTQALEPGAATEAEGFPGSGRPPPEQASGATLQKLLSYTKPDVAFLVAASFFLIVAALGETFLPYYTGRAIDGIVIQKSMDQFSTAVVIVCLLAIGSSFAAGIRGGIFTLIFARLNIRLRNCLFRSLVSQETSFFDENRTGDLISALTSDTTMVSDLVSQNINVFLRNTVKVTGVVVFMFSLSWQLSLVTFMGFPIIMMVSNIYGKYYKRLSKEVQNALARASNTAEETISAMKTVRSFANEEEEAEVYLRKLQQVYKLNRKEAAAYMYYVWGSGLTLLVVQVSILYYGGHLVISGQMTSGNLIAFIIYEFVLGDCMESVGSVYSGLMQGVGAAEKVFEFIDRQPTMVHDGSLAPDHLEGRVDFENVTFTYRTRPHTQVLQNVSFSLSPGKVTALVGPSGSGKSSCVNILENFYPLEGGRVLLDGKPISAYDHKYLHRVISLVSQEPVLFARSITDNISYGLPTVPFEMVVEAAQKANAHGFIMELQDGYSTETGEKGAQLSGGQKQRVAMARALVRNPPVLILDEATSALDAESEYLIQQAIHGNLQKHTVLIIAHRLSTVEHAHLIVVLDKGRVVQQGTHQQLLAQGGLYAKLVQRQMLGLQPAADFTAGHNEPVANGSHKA

In data set [3] the target is T2, human coreTAPL D292A, C-terminal mVenus-His10 fusion (human) (UniProt Q9NP78).
T2 sequence: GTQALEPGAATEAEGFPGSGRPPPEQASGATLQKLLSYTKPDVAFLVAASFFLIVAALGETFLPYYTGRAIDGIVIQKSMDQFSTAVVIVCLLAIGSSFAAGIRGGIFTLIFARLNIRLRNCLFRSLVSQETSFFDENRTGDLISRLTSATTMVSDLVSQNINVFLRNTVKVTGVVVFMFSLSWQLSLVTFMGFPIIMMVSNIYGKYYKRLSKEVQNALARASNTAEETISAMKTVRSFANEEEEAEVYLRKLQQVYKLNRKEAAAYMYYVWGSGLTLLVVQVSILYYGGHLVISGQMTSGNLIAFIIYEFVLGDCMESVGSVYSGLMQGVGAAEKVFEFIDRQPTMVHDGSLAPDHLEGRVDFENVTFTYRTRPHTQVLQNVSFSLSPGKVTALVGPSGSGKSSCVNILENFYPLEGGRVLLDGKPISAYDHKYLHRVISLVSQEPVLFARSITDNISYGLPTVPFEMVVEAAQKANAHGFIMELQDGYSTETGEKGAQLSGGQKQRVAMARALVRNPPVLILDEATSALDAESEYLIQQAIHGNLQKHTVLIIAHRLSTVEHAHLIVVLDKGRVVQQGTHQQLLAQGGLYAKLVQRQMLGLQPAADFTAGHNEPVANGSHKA

Data set [4] concerns the target T3, human coreTAPL wildtype (transporter associated with antigen processing-like, ABCB9), C-terminal mVenus-His10 fusion (human) (UniProt Q9NP78).
T3 sequence: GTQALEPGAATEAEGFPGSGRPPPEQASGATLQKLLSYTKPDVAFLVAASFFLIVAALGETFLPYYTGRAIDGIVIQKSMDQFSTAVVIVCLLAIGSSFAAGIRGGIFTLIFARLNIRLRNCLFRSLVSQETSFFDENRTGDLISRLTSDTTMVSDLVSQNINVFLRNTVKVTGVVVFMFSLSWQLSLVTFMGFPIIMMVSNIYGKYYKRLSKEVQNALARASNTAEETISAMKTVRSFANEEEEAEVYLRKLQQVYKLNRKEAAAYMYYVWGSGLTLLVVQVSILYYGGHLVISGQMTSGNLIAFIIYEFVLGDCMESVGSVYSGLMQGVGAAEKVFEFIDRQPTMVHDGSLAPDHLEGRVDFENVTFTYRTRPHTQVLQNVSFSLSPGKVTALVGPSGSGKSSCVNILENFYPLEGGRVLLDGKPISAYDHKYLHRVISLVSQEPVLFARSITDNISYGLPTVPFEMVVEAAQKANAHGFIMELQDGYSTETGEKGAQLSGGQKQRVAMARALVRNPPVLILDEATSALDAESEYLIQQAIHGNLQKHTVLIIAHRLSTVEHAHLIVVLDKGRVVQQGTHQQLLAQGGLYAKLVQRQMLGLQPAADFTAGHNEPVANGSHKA

For data set [5], the target named is T1, human coreTAPL R288A, C-terminal mVenus-His10 fusion (human). This is another data set of the same source.

No end group written: not given here. *: point of attachment. Fluorescein(5-NHCOCH2) = O=C(C*)Nc1ccc2c(c1)C(=O)OC21c2ccc(O)cc2Oc2cc(O)ccc21

Drawing on publication PMC11267003, “Interdomain communication in a homodimeric ABC transporter” (The Journal of Biological Chemistry, 2024), this text covers binding result, IC50 of the decrease of ATP hydrolysis in proteoliposomes by R9L (0–300 μM, 0.3 mM ATP, 15 min, 37 °C) and K (m,peptide) of peptide transport into proteoliposomes (0 to 30 μM NST^FL, 10 min, 37 °C) for six molecules.

B1: human coreTAPL D278A, C-terminal mVenus-His10 fusion (complex, UniProt Q9NP78 143-766, looked up)
chain: GTQALEPGAATEAEGFPGSGRPPPEQASGATLQKLLSYTKPDVAFLVAASFFLIVAALGETFLPYYTGRAIDGIVIQKSMDQFSTAVVIVCLLAIGSSFAAGIRGGIFTLIFARLNIRLRNCLFRSLVSQETSFFAENRTGDLISRLTSDTTMVSDLVSQNINVFLRNTVKVTGVVVFMFSLSWQLSLVTFMGFPIIMMVSNIYGKYYKRLSKEVQNALARASNTAEETISAMKTVRSFANEEEEAEVYLRKLQQVYKLNRKEAAAYMYYVWGSGLTLLVVQVSILYYGGHLVISGQMTSGNLIAFIIYEFVLGDCMESVGSVYSGLMQGVGAAEKVFEFIDRQPTMVHDGSLAPDHLEGRVDFENVTFTYRTRPHTQVLQNVSFSLSPGKVTALVGPSGSGKSSCVNILENFYPLEGGRVLLDGKPISAYDHKYLHRVISLVSQEPVLFARSITDNISYGLPTVPFEMVVEAAQKANAHGFIMELQDGYSTETGEKGAQLSGGQKQRVAMARALVRNPPVLILDEATSALDAESEYLIQQAIHGNLQKHTVLIIAHRLSTVEHAHLIVVLDKGRVVQQGTHQQLLAQGGLYAKLVQRQMLGLQPAADFTAGHNEPVANGSHKA
notes: human TAPL (ABCB9), coreTAPL, amino acids 143-766; Mutant of the mVenus fusion construct; TEV site between coreTAPL and mVenus; also called D278A^mV; source: Sf21 insect cells (baculovirus), purified by Ni-NTA after solubilisation in GDN or DDM; reconstituted into liposomes for transport and hydrolysis assays; not shown: mVenus, C-terminal, kept
Turning to B1, the binding result in data set [1] was “binds”.

B2: human coreTAPL R288A, C-terminal mVenus-His10 fusion (complex, UniProt Q9NP78 143-766, looked up)
chain: GTQALEPGAATEAEGFPGSGRPPPEQASGATLQKLLSYTKPDVAFLVAASFFLIVAALGETFLPYYTGRAIDGIVIQKSMDQFSTAVVIVCLLAIGSSFAAGIRGGIFTLIFARLNIRLRNCLFRSLVSQETSFFDENRTGDLISALTSDTTMVSDLVSQNINVFLRNTVKVTGVVVFMFSLSWQLSLVTFMGFPIIMMVSNIYGKYYKRLSKEVQNALARASNTAEETISAMKTVRSFANEEEEAEVYLRKLQQVYKLNRKEAAAYMYYVWGSGLTLLVVQVSILYYGGHLVISGQMTSGNLIAFIIYEFVLGDCMESVGSVYSGLMQGVGAAEKVFEFIDRQPTMVHDGSLAPDHLEGRVDFENVTFTYRTRPHTQVLQNVSFSLSPGKVTALVGPSGSGKSSCVNILENFYPLEGGRVLLDGKPISAYDHKYLHRVISLVSQEPVLFARSITDNISYGLPTVPFEMVVEAAQKANAHGFIMELQDGYSTETGEKGAQLSGGQKQRVAMARALVRNPPVLILDEATSALDAESEYLIQQAIHGNLQKHTVLIIAHRLSTVEHAHLIVVLDKGRVVQQGTHQQLLAQGGLYAKLVQRQMLGLQPAADFTAGHNEPVANGSHKA
notes: human TAPL (ABCB9), coreTAPL, amino acids 143-766; Mutant of the mVenus fusion construct; TEV site between coreTAPL and mVenus; also called R288A^mV; source: Sf21 insect cells (baculovirus), purified by Ni-NTA after solubilisation in GDN or DDM; reconstituted into liposomes for transport and hydrolysis assays; not shown: mVenus, C-terminal, kept
For the molecule B2, the binding result in data set [1] is given as “binds”.

B3: human coreTAPL wildtype (transporter associated with antigen processing-like, ABCB9), C-terminal mVenus-His10 fusion (complex, UniProt Q9NP78 143-766, looked up)
chain: GTQALEPGAATEAEGFPGSGRPPPEQASGATLQKLLSYTKPDVAFLVAASFFLIVAALGETFLPYYTGRAIDGIVIQKSMDQFSTAVVIVCLLAIGSSFAAGIRGGIFTLIFARLNIRLRNCLFRSLVSQETSFFDENRTGDLISRLTSDTTMVSDLVSQNINVFLRNTVKVTGVVVFMFSLSWQLSLVTFMGFPIIMMVSNIYGKYYKRLSKEVQNALARASNTAEETISAMKTVRSFANEEEEAEVYLRKLQQVYKLNRKEAAAYMYYVWGSGLTLLVVQVSILYYGGHLVISGQMTSGNLIAFIIYEFVLGDCMESVGSVYSGLMQGVGAAEKVFEFIDRQPTMVHDGSLAPDHLEGRVDFENVTFTYRTRPHTQVLQNVSFSLSPGKVTALVGPSGSGKSSCVNILENFYPLEGGRVLLDGKPISAYDHKYLHRVISLVSQEPVLFARSITDNISYGLPTVPFEMVVEAAQKANAHGFIMELQDGYSTETGEKGAQLSGGQKQRVAMARALVRNPPVLILDEATSALDAESEYLIQQAIHGNLQKHTVLIIAHRLSTVEHAHLIVVLDKGRVVQQGTHQQLLAQGGLYAKLVQRQMLGLQPAADFTAGHNEPVANGSHKA
notes: human TAPL (ABCB9), coreTAPL without the N-terminal TMD0, amino acids 143-766; A tobacco etch virus cleavage site lies between coreTAPL and mVenus; no cleavage is reported for the mVenus constructs, so the His10 behind mVenus was probably still there; also called wt; wt TAPL; source: Sf21 insect cells (baculovirus), purified by Ni-NTA after solubilisation in GDN or DDM; reconstituted into …
With B3, the binding result in data set [1] is reported as “binds”.

B4: human coreTAPL D292A, C-terminal mVenus-His10 fusion (complex, UniProt Q9NP78 143-766, looked up)
chain: GTQALEPGAATEAEGFPGSGRPPPEQASGATLQKLLSYTKPDVAFLVAASFFLIVAALGETFLPYYTGRAIDGIVIQKSMDQFSTAVVIVCLLAIGSSFAAGIRGGIFTLIFARLNIRLRNCLFRSLVSQETSFFDENRTGDLISRLTSATTMVSDLVSQNINVFLRNTVKVTGVVVFMFSLSWQLSLVTFMGFPIIMMVSNIYGKYYKRLSKEVQNALARASNTAEETISAMKTVRSFANEEEEAEVYLRKLQQVYKLNRKEAAAYMYYVWGSGLTLLVVQVSILYYGGHLVISGQMTSGNLIAFIIYEFVLGDCMESVGSVYSGLMQGVGAAEKVFEFIDRQPTMVHDGSLAPDHLEGRVDFENVTFTYRTRPHTQVLQNVSFSLSPGKVTALVGPSGSGKSSCVNILENFYPLEGGRVLLDGKPISAYDHKYLHRVISLVSQEPVLFARSITDNISYGLPTVPFEMVVEAAQKANAHGFIMELQDGYSTETGEKGAQLSGGQKQRVAMARALVRNPPVLILDEATSALDAESEYLIQQAIHGNLQKHTVLIIAHRLSTVEHAHLIVVLDKGRVVQQGTHQQLLAQGGLYAKLVQRQMLGLQPAADFTAGHNEPVANGSHKA
notes: human TAPL (ABCB9), coreTAPL, amino acids 143-766; Mutant of the mVenus fusion construct; TEV site between coreTAPL and mVenus; also called D292A^mV; source: Sf21 insect cells (baculovirus), purified by Ni-NTA after solubilisation in GDN or DDM; reconstituted into liposomes for transport and hydrolysis assays; not shown: mVenus, C-terminal, kept
On to B4, for which, in data set [1], the binding result is given as “binds”.

B5: peptide R9L (…) (peptide)
peptide: RRYQKSTEL
Turning to B5, the IC50 of the decrease of ATP hydrolysis in proteoliposomes by R9L (0–300 μM, 0.3 mM ATP, 15 min, 37 °C) in data set [2] came to 9.5 µM.

B6: peptide NST^FL (RRYQNSTC^FLL) (peptide)
peptide: RRYQNSTC(Fluorescein(5-NHCOCH2))L
Take B6: the results for the K (m,peptide) of peptide transport into proteoliposomes (0 to 30 μM NST^FL, 10 min, 37 °C) in data set [3], in data set [4] and in data set [5] were 2.5 µM, 4.1 µM and 2.2 µM, respectively.
